Assay [1] addresses T1, recombinant human PD-L1 (Sino Biological, Cat#: 10084-H08H) (human, UniProt Q9NZQ7 19-238).
T1 construct: Bought protein; also called human PD-L1 protein
The assay is described as follows: ELISA, plate coated with human PD-L1 at 1 ug/ml, detection with goat anti-human IgG-HRP, OD450. As to the method:
To evaluate antigen binding activity, the antibodies were subjected to ELISA test. Briefly, microtiter plates were coated with human PD-L1 protein at 1 μg/ml in PBS, 100 μl/well at 4° C. overnight, then blocked with 100 μl/well of 1% BSA. 4-fold dilutions of humanized antibodies starting from 10 μg/ml were added to each well and incubated for 1-2 hours at RT. The plates were washed with PBS/Tween and then incubate with goat-anti-human IgG antibody conjugated with Horse Radish Peroxidase (HRP) for 1 hour at RT. After washing, the plates were developed with TMB substrate and analyzed by spectrophotometer at OD 450 nm.
On the technique in general: ELISA stands for enzyme-linked immunosorbent assay.

Assay [2] concerns the target T2, human PD-L1 on Raji cells (human, UniProt Q9NZQ7 19-290). The assay is described as follows: cell-based or functional assay.
In assay [3] the target is T2, human PD-L1 on Raji cells. The assay is described as follows: cell-based or functional assay. This is another data set of the same source.

Substitutions are numbered along the chain they refer to. Like-named read-outs stand apart in the source and are kept apart here.

T1 sequence (Q9NZQ7 19-238 limits assumed): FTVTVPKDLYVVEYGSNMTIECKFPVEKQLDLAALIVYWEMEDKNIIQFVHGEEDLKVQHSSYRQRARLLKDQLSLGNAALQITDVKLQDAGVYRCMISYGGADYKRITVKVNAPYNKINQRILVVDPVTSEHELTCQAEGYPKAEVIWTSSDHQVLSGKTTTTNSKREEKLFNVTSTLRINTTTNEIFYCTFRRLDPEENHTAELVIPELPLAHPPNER
T2 sequence (Q9NZQ7 19-290): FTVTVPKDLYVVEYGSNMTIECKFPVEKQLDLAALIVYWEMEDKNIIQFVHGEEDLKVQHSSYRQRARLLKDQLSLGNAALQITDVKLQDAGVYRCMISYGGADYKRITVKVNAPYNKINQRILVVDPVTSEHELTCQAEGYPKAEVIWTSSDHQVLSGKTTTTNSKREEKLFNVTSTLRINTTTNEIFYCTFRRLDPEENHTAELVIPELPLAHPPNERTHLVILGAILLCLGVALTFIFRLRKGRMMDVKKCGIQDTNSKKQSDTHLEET

B1: B11 (antibody, V domains shown)
VH: EVQLLESGAEVKKPGSSVKVSCKASGGTFSSYAISWVRQAPGQGLEWMGGIIPIFGTANYAQKFQGRVTITADESTSTAYMELSSLRSEDTAVYYCARRTDSYGYSDAFDIWGQGTMVTVSA
VL: not shown
notes: Fab phage clone converted into full-length IgG; also called 67C3-17
Broadly, the EC50 is the concentration giving half of the maximal effect. As to B1, the concentration for a half-maximal effect (EC50) in assay [1] was found to be 0.294 nM.

B2: B17 (antibody, V domains shown)
VH: EVQLLESGGGLVQPGGSLRLSCAASGFTFSSNAMSWVRQAPGKGLEWVSAVGGGGVNTYYADSVKGRFTISRDNSKNTLYLQMNSLRAEDTAVYYCAKGEKGYSNSCIDYWGQGTLVTVSA
VL: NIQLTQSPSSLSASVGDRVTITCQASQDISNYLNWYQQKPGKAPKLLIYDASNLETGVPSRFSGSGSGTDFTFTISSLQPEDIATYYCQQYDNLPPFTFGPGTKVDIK
notes: Fab phage clone converted into full-length IgG; also called 67C2-23
With B2, the EC50 in assay [1] worked out at 36.1 nM.

B3: B01 (antibody, V domains shown)
VH: EVQLLESGGGLVQPGGSLRLSCAASGFTLSSHWLAWVRQAPGKGLEWVASIHQDASLEFYVDSVEGRFTISRDNSKRSLFLQMNNLRVEDTAVYYCARGDNQFDNWGQGTLVTVSA
VL: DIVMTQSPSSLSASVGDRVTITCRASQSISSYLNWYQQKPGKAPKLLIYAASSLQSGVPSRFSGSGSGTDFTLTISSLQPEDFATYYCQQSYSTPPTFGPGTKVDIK
notes: Fab phage clone converted into full-length IgG; also called 67A3-5
B3: the EC50 in assay [1] amounted to 18 nM.

B4: B02 (antibody, V domains shown)
VH: QVQLLESGGGLVKPGGSLRLSCAASGFTFSTYIINWVRQAPGKGLEWVSSVAASGDYAYYANSVKGRFTISRDNSKNTLYLQMNSLRAEDTAVYYCARDRSSGYYLSPNDAFDIWGQGTMVTVSA
VL: NIQLTQSPSSLSASLGDRVTITCRASQTISRYLNWYQQKPGKAPELLIYATSSLQSGVPSRFSGSGSGTDFTLTISSLQPEDFATYYCQQSYSTPTTFGGGTKVEIK
notes: Fab phage clone converted into full-length IgG; also called 67A2-20
B4: the EC50 in assay [1] is 15.5 nM.

B5: B06-01 (antibody, V domains shown)
VH: not shown
VL: DIQMTQSPSSLSASVGDRVTITCRASQGISSYLAWYQQKPGKAPKLLIYAASTLQSGVPDRFSGSGSGTDFTLTISSLQAEDVAVYYCQQYLSVPYTFGQGTKVEIK
Take B5: in assay [2], the “EC50 (NF-AT-luciferase RLU)” value was 0.383 nM.

B6: B06 (antibody, V domains shown)
VH: not shown
VL: B5 VL
notes: Fab phage clone converted into full-length IgG; also called 67A3-40
With B6, in assay [3], the “EC50 (NF-AT-luciferase RLU)” value was determined as 0.516 nM. In addition, the EC50 in assay [1] stood at 0.236 nM.

B7: B06-02 (antibody, V domains shown)
VH: not shown
VL: B5 VL
In the case of B7, in assay [2], the “EC50 (NF-AT-luciferase RLU)” value was 0.97 nM.

B8: B06-03 (antibody, V domains shown)
VH: not shown
VL: B5 VL
On to B8, for which, in assay [2], the “EC50 (NF-AT-luciferase RLU)” value came out at 0.907 nM.

B9: B08 (antibody, V domains shown)
VH: EVQLLESGGGLVQPGGSLRLSCVGSGFTFSDHYMDWVRQAPGKGLEWVSSISSSSSYIYYADSVKGRFTISRDNAKNSLYLQMNSLRAEDTAVYYCARGRVGATNRFGMDVWGQGTMVTVSA
VL: DIQMIQSPSSVSASVGDRVTITCRASESISRWLAWYQQKPGKAPKLLIYAASNLESGVPSRFSGSGSGTEFTLTISSLQPEDFATYYCQQAESFPSFGQGTRLEIK
notes: Fab phage clone converted into full-length IgG; also called 67C2-1
Take B9: the EC50 in assay [1] was 1.63 nM.

B10: B07 (antibody, V domains shown)
VH: EVQLLESGGGLVQPGGSLRLSCAASGFTFSSYWMSWVRQAPGKGLEWVANIKQDGSEKYYVDSVKGRFTISRDNAKNSLYLQMNSLRAEDTAVYYCARVCGYDDAFDIWGQGTMVTVSA
VL: NIQMTHSPSTLSASVGDRVTISCRASQSISTWLAWYQQKPGKAPKLLIYKASSLESGVPSRFSGSGSGTDFTLTISSLQPEDFATYYCQQSYSIPLTFGGGTKVEIK
notes: Fab phage clone converted into full-length IgG; also called 67C1-5
B10: the “EC50 (NF-AT-luciferase RLU)” value in assay [3] amounted to 1.02 nM. Moreover, the EC50 in assay [1] was found to be 0.124 nM.

B11: B04 (antibody, V domains shown)
VH: B10 VH with E1Q, E6D, V99T, C100M, G101L, Y102W
VL: B10 VL with N1D, M4L, H6Q, S22T, Q27E, T31S, A43V, I94T, L96P, G100Q
notes: Fab phage clone converted into full-length IgG; also called 67A3-15
On to B11, for which the “EC50 (NF-AT-luciferase RLU)” value in assay [3] was found to be 2.34 nM. In addition, in assay [1], the EC50 amounted to 0.19 nM.

B12: B14 (antibody, V domains shown)
VH: B10 VH with L11E, G16R, T28S, Q53E, C100V, G101R, Y102F, D103N
VL: NIQLTQSPSSVSASVGDRVTITCRASQGISSWLAWYQQKPGKAPKLLIYAASSLQSGVPSRFSGSGSGTDFTLTISSLQPEDFATYYCQQANSFPFTFGPGTKVDIK
notes: Fab phage clone converted into full-length IgG; also called 67C2-19
Regarding B12, in assay [1], the EC50 came out at 0.222 nM.

B13: B16 (antibody, V domains shown)
VH: B10 VH with E1Q, E6D, C100A, G101L, Y102W
VL: B10 VL with N1D, H6Q, T10S, S22T, T31S, D70E, E81D, Q90H, Y92N, I94L
notes: Fab phage clone converted into full-length IgG; also called 67C3-10
For the molecule B13, the “EC50 (NF-AT-luciferase RLU)” value in assay [3] is 1.05 nM. In addition, the concentration giving a half-maximal response (EC50) in assay [1] turned out to be 0.147 nM.

B14: B16-01 (antibody, V domains shown)
VH: B10 VH with E1Q, E6D, C100A, G101L, Y102W, A119S
VL: B10 VL with N1D, H6Q, T10S, S22T, T31S, D70E, E81D, Q90H, Y92N, I94L
Take B14: the “EC50 (NF-AT-luciferase RLU)” value in assay [2] was 0.611 nM.

B15: B05 (antibody, V domains shown)
VH: EVQLVETGRGLVQPGRSLRLSCAASGFTFSSYWMSWVRQAPGKGLEWVANIKQDGSEKYYVDSVKGRFTISRDNAKNSLYLQMNSLRAEDTAVYYCARGGYYGDDDAFDIWGQGTMVTVSA
VL: B10 VL with H6Q, S22T, T31S, D70E, S91T, I94L, G100Q, K103R, E105G
notes: Fab phage clone converted into full-length IgG; also called 67A3-21
As for B15, the EC50 in assay [1] was 0.625 nM.

B16: B13 (antibody, V domains shown)
VH: EVQLLESGGGLVQPGGSLRLSCAASGFTFSSYWMSWVRQAPGKGLEWVANIKQDGSEKYYVDSVKGRFTISRDNAKNSLYLQMNSLRAEDTAVYFCARSTVKYGADDAFDIWGQGAMVTVSA
VL: B12 VL with L4M, S10T, V11L, G28S, A50K, A91S, N92Y, F94T
notes: Fab phage clone converted into full-length IgG; also called 67C1-10
B16: the EC50 in assay [1] worked out at 0.13 nM.

B17: B12-02 (antibody, V domains shown)
VH: B10 VH with E1Q, D54E, C100A, G101L, Y102W, A119S
VL: B10 VL with N1D, H6Q, T20I, S22T, Q27R, S28G, T31S, K45N, Y49S, Y92S
In the case of B17, the “EC50 (NF-AT-luciferase RLU)” value in assay [2] was 0.497 nM.

B18: B10 (antibody, V domains shown)
VH: B16 VH with E1Q, L5V, E6Q, Y80F, R87G, V93M, F95Y, S99A, A105G, A116T
VL: B12 VL with S10T, V11L, G28S, S31D, K45N, A50K, Q55E, A91S, N92F, F94T
notes: Fab phage clone converted into full-length IgG; also called 67C3-14
On to B18, for which, in assay [3], the “EC50 (NF-AT-luciferase RLU)” value is 2.22 nM. The EC50 in assay [1] worked out at 0.31 nM.

B19: B09 (antibody, V domains shown)
VH: B10 VH with V99E, C100D, G101F, Y102W, D103S, D104G, A105Y, F106Q, I108V
VL: not shown
notes: Fab phage clone converted into full-length IgG; also called 67C2-9
Take B19: the EC50 in assay [1] turned out to be 14.3 nM.

B20: B12 (antibody, V domains shown)
VH: B10 VH with E1Q, C100A, G101L, Y102W
VL: B10 VL with M4L, H6Q, T20I, S22T, Q27R, S28G, T31S, K45N, Y49S, Y92S
notes: Fab phage clone converted into full-length IgG; also called 67C1-9
As for B20, the “EC50 (NF-AT-luciferase RLU)” value in assay [3] amounted to 0.439 nM; in assay [2], 0.545 nM. For the same molecule, in assay [1], the EC50 turned out to be 0.142 nM.

B21: B12-03 (antibody, V domains shown)
VH: B10 VH with E1Q, D54E, S63A, C100A, G101L, Y102W, A119S
VL: B10 VL with N1D, H6Q, T20I, S22T, Q27R, S28G, T31S, K45N, Y49S, Y92S
As for B21, in assay [2], the “EC50 (NF-AT-luciferase RLU)” value amounted to 0.517 nM.

B22: B03 (antibody, V domains shown)
VH: B10 VH with T28S, Q53E, C100V, G101R, Y102F, D103N
VL: DIQLTQSPSTLSASVGDRVTITCRASQSIDTWLAWYQQKPGKAPKLLIHNASTLKSGVSSRFSGSGSGTDFTLTISSLQPEDFATYYCQQSYSTPLTFGGGTKVEIK
notes: Fab phage clone converted into full-length IgG; also called 67A3-14
B22: in assay [1], the EC50 was 1.28 nM.

(Values after patent US20210309747A1 (I MAB BIOPHARMA US, published 2021).)
